“And” between values parts separate entries of the source, which are not always exact repeats. Equal entries are not always repeated.
B1: strep-Hop1 (full length, Hop1-Red1 complex from Hi5 cells) (natural protein, Saccharomyces cerevisiae, UniProt P20050 1-605, looked up)
chain: MSNKQLVKPKTETKTEITTEQSQKLLQTMLTMSFGCLAFLRGLFPDDIFVDQRFVPEKVEKNYNKQNTSQNNSIKIKTLIRGKSAQADLLLDWLEKGVFKSIRLKCLKALSLGIFLEDPTDLLENYIFSFDYDEENNVNINVNLSGNKKGSKNADPENETISLLDSRRMVQQLMRRFIIITQSLEPLPQKKFLTMRLMFNDNVDEDYQPELFKDATFDKRATLKVPTNLDNDAIDVGTLNTKHHKVALSVLSAATSSMEKAGNTNFIRVDPFDLILQQQEENKLEESVPTKPQNFVTSQTTNVLGNLLNSSQASIQPTQFVSNNPVTGICSCECGLEVPKAATVLKTCKSCRKTLHGICYGNFLHSSIEKCFTCIFGPSLDTKWSKFQDLMMIRKVFRFLVRKKKGFPASITELIDSFINVEDQNNEVKERVAFALFVFFLDETLCLDNGGKPSQTIRYVTSSVLVDVKGIVIPNTRKQLNVNHEYKWHFTTSSPKAESFYQEVLPNSRKQVESWLQDITNLRKVYSEALSPSSTLQELDLNSSLPTQDPIISGQKRRRYDLDEYLEEDKSSVVNDTIKAKDFDESVPAKIRKISVSKKTLKSNW
B2: Red1^I743R-MBP (Hop1-Red1 complex from Hi5 cells) (natural protein, Saccharomyces cerevisiae, UniProt P14291 1-827, looked up)
chain: MEGLKKKIFGVCLKNDLAQTRNETKGIHYGLMTLETSKQLQEFLHLLVIKREVIQNFELLFHIINVAVKITDSNLPSDDIWHFILKLRFSSEINIDEDSKVLNYLLETGIAMENPVSWKCLAVISSILSSVPQSKKIITNLIETEHAKKIGQLFDNIQDLQQGNFLVEILSNCFKKSASNSKKVEKIPQLWQSRSKNKFFFENEFYPFSSKNGSLQTCQFLCNNFMSTLSFTGILRQVSYSGSETLKNLRIFKKKDDENSYFIQCIYNKIYLWLDEKAPLEFERKKIRITKNLKNKIQIKLRQPFHECVRTTADKTALLFNKTKGFQLEFEDEKLGETFFHNVNNIPKISEVQNFLVLDYIEEEPENEGEEEEQIGRADEQKEDEEEESLDELSTPMVYPIKSSIPHNHNEKVQLVTPDRSVSIRSDEWDLKSNTEDEEGNVLADLKISSTKETKRQTDYVHIDSEDQSPVVSAQMRKMRRESTKTLEILRQEFKDKDVQNKEDQSEQIQNPFVNTSSLVVGKSCLVNPKEKPNIDQTVVGITELKSNSSIKKRDINILDTIFGQPPSKKQKQFHKKEKKKQQKKLTNFKPIIDVPSQDKRNLRSNAPTKPKSIKVSKLRTDKKVTGEKSSPETAAEKVDDQTVRSNDEQAMSRATKEKCFPDVNEGKEITKDDAKVSLESKKNNETFVDSSVVEKHTPPDKDCNNCNITDILESTTVIDLQSPHGLSAPGQNTFTNKLQEQRYSSINHFSNELVRKISIINQELNKKILKELSEKYQKLFSELQDNFQNDTNEMLKFMGEIKDMMNLPEDQLVHAIRTRKFDNNKR

Assays:
[1] = biological target: B2; test: pull-down
[2] = biological target: B2; test: cross-linking
strep-Hop1 FL K593A = biological target: T1, strep-Hop1 FL K593A (Saccharomyces cerevisiae, UniProt P20050 1-605, K593A); test: pull-down
T1 sequence (looked up): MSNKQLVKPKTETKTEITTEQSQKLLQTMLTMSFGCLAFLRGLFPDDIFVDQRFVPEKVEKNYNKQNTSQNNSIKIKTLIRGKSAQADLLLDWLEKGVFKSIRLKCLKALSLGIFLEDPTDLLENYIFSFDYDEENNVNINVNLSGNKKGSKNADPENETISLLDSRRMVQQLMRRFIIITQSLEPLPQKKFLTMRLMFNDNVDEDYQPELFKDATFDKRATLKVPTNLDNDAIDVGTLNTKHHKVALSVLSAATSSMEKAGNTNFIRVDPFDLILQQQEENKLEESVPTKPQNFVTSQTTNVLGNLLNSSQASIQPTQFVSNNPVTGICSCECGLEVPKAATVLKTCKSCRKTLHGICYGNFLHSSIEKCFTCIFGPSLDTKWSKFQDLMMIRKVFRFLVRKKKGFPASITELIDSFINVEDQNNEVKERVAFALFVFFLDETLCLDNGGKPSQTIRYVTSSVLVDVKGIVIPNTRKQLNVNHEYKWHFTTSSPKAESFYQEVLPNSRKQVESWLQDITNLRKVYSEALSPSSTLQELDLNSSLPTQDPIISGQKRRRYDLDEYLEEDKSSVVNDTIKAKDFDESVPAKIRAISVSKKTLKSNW

[3] = biological target: B1; test: mass photometry
mass photometry = biological target: the molecule itself; test: mass photometry
SEC-MALS = biological target: the molecule itself; test: SEC-MALS

Binder: B1
- binding result [1]: binds
- binding result [2]: binds

Binder: FHNVNNIPKISEVQNFLVLDYIE (peptide, UniProt P14291 340-362, looked up) [MBP-Red1 (340-362), wild-type closure motif]
- binding result (strep-Hop1 FL K593A): binds

Binder: B2
- stoichiometry N [3]: 1

B3: MBP-Red1^733-819 (WT) (domain or fragment, Saccharomyces cerevisiae, UniProt P14291 733-819, looked up)
chain: NTFTNKLQEQIYSSINHFSNELVRKISIINQELNKKILKELSEKYQKLFSELQDNFQNDTNEMLKFMGEIKDMMNLPEDQLVHAIRT
- stoichiometry N (mass photometry): 4

B4: MBP-Red1^733-819/I743R (domain or fragment, Saccharomyces cerevisiae, UniProt P14291 733-819, looked up)
chain: NTFTNKLQEQRYSSINHFSNELVRKISIINQELNKKILKELSEKYQKLFSELQDNFQNDTNEMLKFMGEIKDMMNLPEDQLVHAIRT
- stoichiometry N (mass photometry): 4

B5: MBP-Red1^733-827/I743R (domain or fragment, Saccharomyces cerevisiae, UniProt P14291 733-827, looked up)
chain: NTFTNKLQEQRYSSINHFSNELVRKISIINQELNKKILKELSEKYQKLFSELQDNFQNDTNEMLKFMGEIKDMMNLPEDQLVHAIRTRKFDNNKR
- stoichiometry N (SEC-MALS): 4
- stoichiometry N (mass photometry): 2

B6: MBP-Red1^733-827 (coiled-coil, WT) (domain or fragment, Saccharomyces cerevisiae, UniProt P14291 733-827, looked up)
chain: NTFTNKLQEQIYSSINHFSNELVRKISIINQELNKKILKELSEKYQKLFSELQDNFQNDTNEMLKFMGEIKDMMNLPEDQLVHAIRTRKFDNNKR
- stoichiometry N (mass photometry): 2 and 4
